Here are results for five substances from doi:10.1101/695700.

Experiment [1] has as its target recombinant HC1 (rHC1), wild type; heavy chain 1 of inter-α-inhibitor (human) (UniProt P19827). The experiment in a line: SPR. (In SPR one partner is held on a chip, and binding of the other changes the refractive index at the surface.)
The next experiment has as its target complement C3. The experiment in a line: SPR.

recombinant HC1 (rHC1), wild type; heavy chain 1 of inter-α-inhibitor (human), sequence (P19827 35-672): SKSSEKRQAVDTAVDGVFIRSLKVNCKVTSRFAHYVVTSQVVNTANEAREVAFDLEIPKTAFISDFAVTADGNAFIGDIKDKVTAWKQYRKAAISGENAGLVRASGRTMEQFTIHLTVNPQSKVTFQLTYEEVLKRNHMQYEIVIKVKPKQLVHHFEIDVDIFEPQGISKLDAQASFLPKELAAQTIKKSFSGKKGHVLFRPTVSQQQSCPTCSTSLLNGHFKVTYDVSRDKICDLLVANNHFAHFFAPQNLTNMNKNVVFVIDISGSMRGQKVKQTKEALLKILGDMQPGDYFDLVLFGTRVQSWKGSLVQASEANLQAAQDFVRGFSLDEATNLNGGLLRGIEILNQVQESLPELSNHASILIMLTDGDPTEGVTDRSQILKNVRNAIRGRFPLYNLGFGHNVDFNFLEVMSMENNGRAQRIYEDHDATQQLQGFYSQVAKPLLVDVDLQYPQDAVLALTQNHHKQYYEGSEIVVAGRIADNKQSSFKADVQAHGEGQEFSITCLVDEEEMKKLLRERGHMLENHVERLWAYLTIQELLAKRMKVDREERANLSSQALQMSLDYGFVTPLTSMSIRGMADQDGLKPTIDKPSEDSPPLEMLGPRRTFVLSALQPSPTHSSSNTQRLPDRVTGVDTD

For the substance “LAP (latency-associated peptide from TGFβ1) (domain or fragment)”, the Kd – broadly, the concentration at which binding is half-saturated – in experiment [1] turned out to be 2 nM.

For “TGFβ1-LAP (small latent complex of TGFβ1) (from UniProt P01137 30-278)”, in experiment [1], the Kd was determined as 10 nM.

In the case of “TGFβ2-LAP (small latent complex of TGFβ2) (from UniProt P61812 21-302)”, the Kd in experiment [1] is 10 nM.

Take “TGFβ3-LAP (small latent complex of TGFβ3) (from UniProt P10600 24-300)”: the Kd in experiment [1] worked out at 10 nM.

In the experiment with complement C3, “inter-α-inhibitor (IαI) (from UniProt P19827 35-672; P19823 55-702) (complex)” returned a Kd of 660 nM.
